Earlier results in patent US11376231B2, “Compositions of bioactive fulvate fractions and uses thereof” (OMNI BIOCEUTICAL INNOVATIONS, INC., priority 2016, dated 2022).
Like-named read-outs stand apart in the source and are kept apart here.

Tested on: chronic wounds
Design: key: N.S. = not statistically significant

B1: PDGF-BB: platelet-derived growth factor BB (protein, UniProt P01127 82-190, looked up)
Platelet-derived growth …: SLGSLTIAEPAMIAECKTRTEVFEISRRLIDRTNANFLVWPPCVEVQRCSGCCNNRNVQCRPTQVQLRPVQVRKIEIVRKKPIFKKATVTLEDHLACKCETVAAARPVT
modifications: homodimer
Question: With B1 as the molecule, how does the Results (pressure (20), 1, 10, and 100 μg/mL daily, Robson et al.) read?
Answer: Its Results is “N.S”.

Question: What about the Results (pressure (45), 1 and 3 μg/mL daily, Mustoe et al.) of the same molecule?
Answer: Its Results is “N.S”.

B2: TGF-β2: transforming growth factor-β2 (protein, UniProt P61812 303-414, looked up)
Transforming growth factor …: ALDAAYCFRNVQDNCCLRPLYIDFKRDLGWKWIHEPKGYNANFCAGACPYLWSSDTQHSRVLSLYNTINPEASASPCCVSQDLEPLTILYYIGKTPKIEQLSNMIVKSCKCS
modifications: Transforming growth factor beta-2
Question: Which Results (venous (36), 2.5 μg/cm^2 three times per week, Robson et al.) does the source give for B2 here?
Answer: The Results was “N.S”.
